# Laboratory results as given in paper PMC7696055 (Pharmaceutics, 2020).
# Tests used:
# A431/CCKBR tumors = conditions: mouse, in vivo, iv
# Description: The image reconstruction and processing was accomplished by using VivoQuant 3.0 Patch1 software.
# [1] = cited from earlier work
# Description: The radiolabeled PP-F11N is a small molecular weight peptide (2.032 kDa), which can be reabsorbed in the proximal tu ...
SMILES,location of radioactive signals in SPECT/CT (A431/CCKBR tumors),"radiation dose received by stomach (median) ([1]; MTC patients, highest organ dose) [Gy/GBq]",kidney radiation dose ([1]; six MTC patients)
"CCCC[C@H](NC(=O)[C@H](Cc1c[nH]c2ccccc12)NC(=O)CNC(=O)[C@H](Cc1ccc(O)cc1)NC(=O)[C@H](C)NC(=O)[C@@H](CCC(=O)O)NC(=O)[C@@H](CCC(=O)O)NC(=O)[C@@H](CCC(=O)O)NC(=O)[C@@H](CCC(=O)O)NC(=O)[C@@H](CCC(=O)O)NC(=O)[C@@H](CCC(=O)O)NC(=O)CN1CCN(CC(=O)O)CCN(CC(=O)O)CCN(CC(=O)O)CC1)C(=O)N[C@@H](CC(=O)O)C(=O)N[C@@H](Cc1ccccc1)C(N)=O [[^111In]In-PP-F11N, metal not drawn]",only detected in the excretion organs including kidneys and bladder,,
"CCCC[C@H](NC(=O)[C@H](Cc1c[nH]c2ccccc12)NC(=O)CNC(=O)[C@H](Cc1ccc(O)cc1)NC(=O)[C@H](C)NC(=O)[C@@H](CCC(=O)O)NC(=O)[C@@H](CCC(=O)O)NC(=O)[C@@H](CCC(=O)O)NC(=O)[C@@H](CCC(=O)O)NC(=O)[C@@H](CCC(=O)O)NC(=O)[C@@H](CCC(=O)O)NC(=O)CN1CCN(CC(=O)O)CCN(CC(=O)O)CCN(CC(=O)O)CC1)C(=O)N[C@@H](CC(=O)O)C(=O)N[C@@H](Cc1ccccc1)C(N)=O [[^177Lu]Lu-PP-F11N, metal not drawn]",,0.42,relatively low kidney radiation dose
